What all share (assay): receptor-Fc IP
In one test the target is T1, VEGFR-1-Fc (UniProt P17948 27-338).
T1 construct: domain: first three Ig domains; expressed in Drosophila S2 cells, purified on Protein A sepharose; also called VEGFR-1-Fc fusion protein; not shown: Fc fragment from the Signal-pIgPlus vector
The procedure: (§1) The binding assay procedure was identical to the immunoprecipitation using pentahistidine antibody described in Example 2, apart from the composition of the immunoprecipitation (IP) mixes. The IP mixes used for the receptor binding analysis were as follows: For VEGFR-1 binding assays, the IP mix was phosphate buffered saline (PBS) containing 1.5% BSA, 0.06% Tween 20, 3 μg/ml heparin and 400 ng/ml VEGFR-1-Fc fusion protein (100 μl of this IP mix was added to 200 μl of sample supernatant); for VEGFR-2 binding assays, the IP mix was 82% conditioned cell supernatant from 293T cells transiently expressing VEGFR-2-Fc fusion protein in mixture with 18% of a PBS solution that contained 5% BSA, 0.2% Tween 20, and 10 μg/ml heparin (250 μl of IP mix was added to 200 μl of sample supernatant); and for VEGFR-3 binding assays, the IP mix was 82% conditioned cell supernatant from 293T cells transiently expressing VEGFR-3-Fc fusion protein, 18% of PBS containing 5% BSA, 0.2% Tween 20, and 10 μg/ml heparin (250 μl of IP mix was added to 200 μl of sample supernatant).

The next test addresses T2, VEGFR-2-Fc (UniProt P35968 20-322).
T2 construct: domain: first 3 Ig domains; conditioned supernatant of 293T cells; also called VEGFR-2-Fc fusion protein; not shown: Fc fragment of the pIg vector
The protocol: as §1

In another test the target is T3, VEGFR-3-Fc (UniProt P35916 25-328).
T3 construct: domain: first three Ig domains; conditioned supernatant of 293T cells; also called VEGFR-3-Fc fusion protein; not shown: Fc fragment of the pIg vector
T3 sequence (looked up): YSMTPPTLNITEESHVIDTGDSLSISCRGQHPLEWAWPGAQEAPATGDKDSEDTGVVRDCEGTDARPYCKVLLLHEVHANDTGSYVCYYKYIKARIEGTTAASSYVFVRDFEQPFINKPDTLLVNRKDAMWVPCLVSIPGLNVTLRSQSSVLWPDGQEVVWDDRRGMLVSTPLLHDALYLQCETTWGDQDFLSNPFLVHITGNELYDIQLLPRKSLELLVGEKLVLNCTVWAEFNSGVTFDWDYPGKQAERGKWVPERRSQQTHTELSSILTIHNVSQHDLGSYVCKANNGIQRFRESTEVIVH
The procedure:
as §1

T1 sequence (P17948 27-338): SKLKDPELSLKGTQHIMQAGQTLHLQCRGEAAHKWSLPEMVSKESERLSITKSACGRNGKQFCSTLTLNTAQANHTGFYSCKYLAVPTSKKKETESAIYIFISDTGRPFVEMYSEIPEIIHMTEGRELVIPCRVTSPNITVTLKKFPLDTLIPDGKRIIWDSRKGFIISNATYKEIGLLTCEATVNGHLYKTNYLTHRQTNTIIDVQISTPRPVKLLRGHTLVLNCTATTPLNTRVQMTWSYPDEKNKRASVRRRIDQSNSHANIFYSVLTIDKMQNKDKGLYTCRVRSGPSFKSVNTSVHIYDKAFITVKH
T2 sequence (P35968 20-322): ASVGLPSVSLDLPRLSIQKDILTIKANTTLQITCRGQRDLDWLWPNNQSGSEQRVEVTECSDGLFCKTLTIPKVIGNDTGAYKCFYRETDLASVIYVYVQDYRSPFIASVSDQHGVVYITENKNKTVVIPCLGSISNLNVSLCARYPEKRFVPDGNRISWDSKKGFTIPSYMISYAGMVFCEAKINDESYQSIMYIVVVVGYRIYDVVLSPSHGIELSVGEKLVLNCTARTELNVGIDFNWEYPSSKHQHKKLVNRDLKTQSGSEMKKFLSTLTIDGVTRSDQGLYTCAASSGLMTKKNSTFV

B1: 81-1 (ligand)
chain: AHYNTEILKFMDVYQRSYCHPIETLVDIFQEYPDEIEYIFKPSCVPLMRCGGCCNDEGLECVPTEESNITMQIMRIKPHQGQHIGEMSFLQHNKCECRPKKD
Regarding B1, the binding result with VEGFR-1-Fc is “binds”; in the test with VEGFR-2-Fc it was “binds”; in the test with VEGFR-3-Fc it was “no binding”.

B2: 83-1 (ligand)
chain: AHYNTEILKFMDVYQRSYCHPIETLVDIFQEYPDEIEYIFKPPCVSVYRCGGCCNDEGLECVPTEESNITMQIMRIKPHQGQHIGEMSFLQHNKCECRPKKD
Consider B2, for which the binding result is listed as “binds” with VEGFR-1-Fc, “binds” with VEGFR-2-Fc and “no binding” in the test with VEGFR-3-Fc.

B3: 81-3 (ligand)
chain: AHYNTEILKFMDVYQRSYCHPIETLVDIFQEYPDEIEYIFKPSCVPLMRCGGCCNSEGLQCVPTEESNITMQIMRIKPHQGQHIGEMSFLQHNKCECRPKKD
As to B3, the results for the binding result in the test with VEGFR-1-Fc, with VEGFR-2-Fc and with VEGFR-3-Fc were “binds”, “binds” and “no binding”, respectively.

B4: 83-3 (ligand)
chain: AHYNTEILKFMDVYQRSYCHPIETLVDIFQEYPDEIEYIFKPPCVSVYRCGGCCNSEGLQCVPTEESNITMQIMRIKPHQGQHIGEMSFLQHNKCECRPKKD
On to B4, for which the binding result was “binds” with VEGFR-1-Fc, “binds” with VEGFR-2-Fc and “no binding” with VEGFR-3-Fc.

B5: 72-9 (ligand)
chain: GQNHHEVVKSIDNEWRKTQCMPREVCIDVGKEFGVATNTFFKPPCVSVYRCGGCCNDEGLECVPTEESNITMQIMRITVPLSQGPKPVTISFLQHNKCECRPKKD
B5: the binding result with VEGFR-1-Fc, in the test with VEGFR-2-Fc and with VEGFR-3-Fc was “no binding” in each case.

B6: 41-7 (ligand)
chain: AHYNTEILKFMDVYQRSYCHPREVCIDVGKEYPDEIEYIFKPSCVPLMRCGGCCNSEGLQCVPTEESNITMQIMRIKPHQGQHIGEMSFANHTSCRCMSKLD
With B6, the binding result in the test with VEGFR-1-Fc, in the test with VEGFR-2-Fc and with VEGFR-3-Fc was “no binding” in each case.

B7: 42-7 (ligand)
chain: AHYNTEILKFMDVYQRSYCHPREVCIDVGKEFGVATNTFFKPPCVSVYRCGGCCNSEGLQCVPTEESNITMQIMRIKPHQGQHIGEMSFANHTSCRCMSKLD
Regarding B7, the binding result with VEGFR-1-Fc, in the test with VEGFR-2-Fc and with VEGFR-3-Fc was “no binding” in each case.

B8: 61-5 (ligand)
chain: GQNHHEVVKFMDVYQRSYCHPREVCIDVGKEYPDEIEYIFKPSCVPLMRCGGCCNDEGLECVPTEESNITMQIMRIKPHQGQHIGEMSFANHTSCRCMSKLD
On to B8, for which the binding result with VEGFR-1-Fc, with VEGFR-2-Fc and with VEGFR-3-Fc was “no binding” in each case.

B9: 81-7 (ligand)
chain: AHYNTEILKFMDVYQRSYCHPIETLVDIFQEYPDEIEYIFKPSCVPLMRCGGCCNSEGLQCVPTEESNITMQIMRIKPHQGQHIGEMSFANHTSCRCMSKLD
With B9, the binding result is “binds” in the test with VEGFR-1-Fc, “binds” in the test with VEGFR-2-Fc and “no binding” in the test with VEGFR-3-Fc.

B10: 44-7 (ligand)
chain: AHYNTEILKFMDVYQRSYCHPREVCIDVGKEFGVATNTFFKPSCVPLMRCGGCCNSEGLQCVPTEESNITMQIMRIKPHQGQHIGEMSFANHTSCRCMSKLD
As for B10, the binding result in the test with VEGFR-1-Fc, with VEGFR-2-Fc and with VEGFR-3-Fc was “no binding” each time.

B11: 83-7 (ligand)
chain: AHYNTEILKFMDVYQRSYCHPIETLVDIFQEYPDEIEYIFKPPCVSVYRCGGCCNSEGLQCVPTEESNITMQIMRIKPHQGQHIGEMSFANHTSCRCMSKLD
As to B11, the binding result is given as “binds” with VEGFR-1-Fc, “binds” in the test with VEGFR-2-Fc and “no binding” with VEGFR-3-Fc.

B12: 43-5 (ligand)
chain: AHYNTEILKFMDVYQRSYCHPREVCIDVGKEYPDEIEYIFKPPCVSVYRCGGCCNDEGLECVPTEESNITMQIMRIKPHQGQHIGEMSFANHTSCRCMSKLD
For the molecule B12, the binding result with VEGFR-1-Fc, in the test with VEGFR-2-Fc and in the test with VEGFR-3-Fc was “no binding” each time.

B13: 44-5 (ligand)
chain: AHYNTEILKFMDVYQRSYCHPREVCIDVGKEFGVATNTFFKPSCVPLMRCGGCCNDEGLECVPTEESNITMQIMRIKPHQGQHIGEMSFANHTSCRCMSKLD
As to B13, the binding result with VEGFR-1-Fc, with VEGFR-2-Fc and in the test with VEGFR-3-Fc was “no binding” throughout.

B14: 81-5 (ligand)
chain: AHYNTEILKFMDVYQRSYCHPIETLVDIFQEYPDEIEYIFKPSCVPLMRCGGCCNDEGLECVPTEESNITMQIMRIKPHQGQHIGEMSFANHTSCRCMSKLD
As to B14, the binding result with VEGFR-1-Fc is recorded as “binds”; with VEGFR-2-Fc it was “binds”; with VEGFR-3-Fc, “no binding”.

B15: 61-7 (ligand)
chain: GQNHHEVVKFMDVYQRSYCHPREVCIDVGKEYPDEIEYIFKPSCVPLMRCGGCCNSEGLQCVPTEESNITMQIMRIKPHQGQHIGEMSFANHTSCRCMSKLD
For the molecule B15, the binding result with VEGFR-1-Fc, with VEGFR-2-Fc and with VEGFR-3-Fc was “no binding” in each case.

B16: 63-7 (ligand)
chain: GQNHHEVVKFMDVYQRSYCHPREVCIDVGKEYPDEIEYIFKPPCVSVYRCGGCCNSEGLQCVPTEESNITMQIMRIKPHQGQHIGEMSFANHTSCRCMSKLD
Consider B16, for which the binding result in the test with VEGFR-1-Fc is recorded as “no binding”; with VEGFR-2-Fc, “binds”; in the test with VEGFR-3-Fc, “binds”.

B17: 83-5 (ligand)
chain: AHYNTEILKFMDVYQRSYCHPIETLVDIFQEYPDEIEYIFKPPCVSVYRCGGCCNDEGLECVPTEESNITMQIMRIKPHQGQHIGEMSFANHTSCRCMSKLD
Turning to B17, the results for the binding result with VEGFR-1-Fc, in the test with VEGFR-2-Fc and with VEGFR-3-Fc were “binds”, “binds” and “no binding”, respectively.

B18: 83-15 (ligand)
chain: AHYNTEILKFMDVYQRSYCHPIETLVDIFQEYPDEIEYIFKPPCVSVYRCGGCCNSEGLQCVPTEESNITMQIMRITVPLSQGPKPVTISFANHTSCRCMSKLDL
notes: clone entry
For B18, the binding result in the test with VEGFR-1-Fc is “binds”; with VEGFR-2-Fc it was “binds”; in the test with VEGFR-3-Fc it was “no binding”.

B19: 83-9 (ligand)
chain: AHYNTEILKFMDVYQRSYCHPIETLVDIFQEYPDEIEYIFKPPCVSVYRCGGCCNDEGLECVPTEESNITMQIMRITVPLSQGPKPVTISFLQHNKCECRPKKD
On to B19, for which the binding result is “binds” with VEGFR-1-Fc, “no binding” with VEGFR-2-Fc and “no binding” with VEGFR-3-Fc.

B20: 83-13 (ligand)
chain: AHYNTEILKFMDVYQRSYCHPIETLVDIFQEYPDEIEYIFKPPCVSVYRCGGCCNDEGLECVPTEESNITMQIMRITVPLSQGPKPVTISFANHTSCRCMSKLD
Consider B20, for which the binding result is recorded as “binds” in the test with VEGFR-1-Fc, “no binding” with VEGFR-2-Fc and “no binding” with VEGFR-3-Fc.

B21: 83-11 (ligand)
chain: AHYNTEILKFMDVYQRSYCHPIETLVDIFQEYPDEIEYIFKPPCVSVYRCGGCCNSEGLQCVPTEESNITMQIMRITVPLSQGPKPVTISFLQHNKCECRPKKD
In the case of B21, the values for the binding result with VEGFR-1-Fc, with VEGFR-2-Fc and with VEGFR-3-Fc were “binds”, “binds” and “no binding”, respectively.

(Values after US20080058263A1 (published 2008).)
